Targets include FVIIaDV (Homo sapiens, UniProt P08709, point mutant); FVIIaDQ (Homo sapiens, UniProt P08709, point mutant); FVIIaVQ (Homo sapiens, UniProt P08709, point mutant).
Assay in all cases: SPR
(In SPR one partner is held on a chip, and binding of the other changes the refractive index at the surface.)

The results in this text go back to article PMC6611371 (Research and Practice in Thrombosis and Haemostasis, 2019).

For orientation: Kd means a measure of binding affinity in units of concentration. Read a high Kd as weaker binding. For orientation: koff means the rate constant with which the complex falls apart. Lower therefore signals slow dissociation.

B1: mAb4F5 (antibody, V domains shown)
VH: EVKLVESGGGLVQPGGSRKLSCAASGFTFSDYGMAWVRQAPGKGPEWIAFISNLSRIYYADTVTGRFTISRENDKNTLFLEMSSLRSEDSAIYYCTRDDGYYRVDYWGQGATLTVSS
VL: DIVMTQSHKFLSTSVGNRVSITCKASQDVGIGLVSWYQQKPGQSPKLLIHWASTRHTGVPDRFTGSGSGTDFTLTINNVQSEDLATYFCQQFSNYPLTFGSGTRLEIK
Turning to B1, the dissociation constant Kd in the experiment with FVIIaDV was 1.1 nM; with FVIIaDQ, 1.9 nM; with FVIIaVQ, 130 nM. Besides, the koff in the experiment with FVIIaDV was 0.00016 s⁻¹; with FVIIaDQ it was 0.00024 s⁻¹; with FVIIaVQ it was 0.0035 s⁻¹.
